Test results taken from patent US7435413 (dated 2008).

Target: T1, sTF (soluble human tissue factor 1-219) (human)
T1 chain: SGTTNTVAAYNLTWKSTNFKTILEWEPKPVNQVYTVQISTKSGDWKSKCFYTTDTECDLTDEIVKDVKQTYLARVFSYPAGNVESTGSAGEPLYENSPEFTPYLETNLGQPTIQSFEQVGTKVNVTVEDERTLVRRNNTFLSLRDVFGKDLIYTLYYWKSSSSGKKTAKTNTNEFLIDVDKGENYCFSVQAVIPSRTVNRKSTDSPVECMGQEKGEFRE
Assay: SPR

Kd: 1.7 nM
B1: 5G6 (antibody, V domains shown)
VH: EVLLQQSGPELVKPGASVKIPCKASGYTFTEYNMDWVKQSHGKSLEWIGDINPNNGNTIYNQKFKGKATLTVDKSSTTAYLELRSLTSEDTAVYFCARDHDYYFDFWGQGTTLTVSS
VL: DIQMTQTPASQSASLGESVTITCLASQTIDTWLAWYQQKPGKSPQLLIYAATSLADGVPSRFSGSGSGTKFSFKISSLQAEDFVSYYCQQPYSSPYTFGGGTKLELKR
